Test results: US20210163536A1 (IPSEN PHARMA S A S, published 2021)

Key:
Assay in all cases: competition with [125I]-NDP-alpha-MSH, CHO-K1 cell membranes
[1] = molecular target: T1, human melanocortin-1 receptor (human, UniProt Q01726 1-317)
T1 construct: whole, on cells; Ki assays used cellular membranes of the CHO-K1 cells; cAMP assays used the whole cells; also called hMC1; hMC-R receptor subtype 1
Description: (§1) Competitive inhibition of [¹²⁵I](Tyr²)-(Nle⁴-D-Phe⁷)α-MSH ([¹²⁵I]-NDP-α-MSH, Amersham Biosciences®) binding was carried out in polypropylene 96 well plates. […] Bound [¹²⁵I]-NDP-α-MSH ligand was separated from free [¹²⁵I]-NDP-α-MSH by filtration through GF/C glass fiber filter plates (Unifilter®; Packard) presoaked with 0.1% (w/v) polyethylenimine (PEI), using a Packard Filtermate® harvester. Filters were washed three times with 50 mM Tris-HCl at pH 7.4 at a temperature of approximately 0-4° C. and then assayed for radioactivity using a Packard Topcount® scintillation counter. Binding data were analyzed by computer-assisted non-linear regression analysis (XL fit; IDBS).

[2] = molecular target: T2, human melanocortin-5 receptor (human, UniProt P33032 1-325)
T2 construct: whole, on cells; Ki assays used cellular membranes of the CHO-K1 cells; cAMP assays used the whole cells; also called hMC5; hMC-R receptor subtype 5
T2 sequence (P33032 whole entry): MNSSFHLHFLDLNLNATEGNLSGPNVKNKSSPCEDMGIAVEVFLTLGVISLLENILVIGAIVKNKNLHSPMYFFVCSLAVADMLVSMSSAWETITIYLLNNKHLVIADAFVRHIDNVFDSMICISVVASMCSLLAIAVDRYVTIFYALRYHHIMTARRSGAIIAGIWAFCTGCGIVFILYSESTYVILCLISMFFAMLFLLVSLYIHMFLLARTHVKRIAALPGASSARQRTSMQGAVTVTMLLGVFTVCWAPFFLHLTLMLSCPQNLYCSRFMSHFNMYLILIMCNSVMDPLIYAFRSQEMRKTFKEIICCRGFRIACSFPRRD
Description: as §1

[3] = molecular target: T3, human melanocortin-4 receptor (human, UniProt P32245 1-332)
T3 construct: whole, on cells; Ki assays used cellular membranes of the CHO-K1 cells; cAMP assays used the whole cells; also called hMC4; hMC-R receptor subtype 4
T3 sequence (P32245 whole entry): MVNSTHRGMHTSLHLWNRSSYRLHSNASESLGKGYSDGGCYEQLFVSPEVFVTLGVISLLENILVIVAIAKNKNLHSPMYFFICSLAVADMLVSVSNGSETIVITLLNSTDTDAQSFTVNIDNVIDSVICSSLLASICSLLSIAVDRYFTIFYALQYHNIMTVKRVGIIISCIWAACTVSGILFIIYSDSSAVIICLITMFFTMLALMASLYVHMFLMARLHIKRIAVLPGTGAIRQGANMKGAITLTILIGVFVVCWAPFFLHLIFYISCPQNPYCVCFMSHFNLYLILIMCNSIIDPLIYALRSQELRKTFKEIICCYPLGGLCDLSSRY
Description: as §1

[4] = molecular target: T4, human melanocortin-3 receptor (human, UniProt P41968 1-323)
T4 construct: whole, on cells; Ki assays used cellular membranes of the CHO-K1 cells; cAMP assays used the whole cells; also called hMC3; hMC-R receptor subtype 3
T4 sequence (P41968 whole entry): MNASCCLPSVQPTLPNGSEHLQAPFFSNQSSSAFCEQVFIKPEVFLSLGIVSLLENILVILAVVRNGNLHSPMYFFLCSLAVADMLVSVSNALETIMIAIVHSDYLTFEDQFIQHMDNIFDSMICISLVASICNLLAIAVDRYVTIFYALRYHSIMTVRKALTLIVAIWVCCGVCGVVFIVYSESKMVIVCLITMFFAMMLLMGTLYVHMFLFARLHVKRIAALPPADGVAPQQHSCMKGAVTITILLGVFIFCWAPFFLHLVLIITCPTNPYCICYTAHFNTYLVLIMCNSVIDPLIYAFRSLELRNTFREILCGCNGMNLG
Description: as §1

T1 sequence (Q01726 whole entry): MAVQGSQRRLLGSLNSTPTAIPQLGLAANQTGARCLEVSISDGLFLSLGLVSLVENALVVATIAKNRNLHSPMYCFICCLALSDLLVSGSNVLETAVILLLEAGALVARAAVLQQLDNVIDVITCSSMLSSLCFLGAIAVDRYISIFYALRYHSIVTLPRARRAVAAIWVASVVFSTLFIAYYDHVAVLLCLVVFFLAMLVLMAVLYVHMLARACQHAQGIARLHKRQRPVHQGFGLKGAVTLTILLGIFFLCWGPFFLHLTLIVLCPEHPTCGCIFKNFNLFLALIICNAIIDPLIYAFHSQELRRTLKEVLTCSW

Binder | Ki [1] | Ki [2] | Ki [3] | Ki [4]
CEHXRWC (not fully specified; hydantoin ring from Nle 1, C(O) and the amino group of Gly 2; Nle 1; D-Phe 6; disulfide Cys 3-Cys 9 (cyclo); C-terminal amide, residue 6 here is D-Phe; also called Compound F) [Hydantoin(C(O)-(Nle-Gly))-cyclo(Cys-Glu-His-D-Phe-Arg-Trp-Cys)-NH2] | 14.3 nM | 67.8 nM |  | 
CEHXRWC (not fully specified; hydantoin ring from Gly 1, C(O) and the amino group of Gly 2; D-Phe 6; disulfide Cys 3-Cys 9 (cyclo); C-terminal amide, residue 6 here is D-Phe) [Hydantoin(C(O)-(Gly-Gly))-cyclo(Cys-Glu-His-D-Phe-Arg-Trp-Cys)-NH2] | 11.9 nM | 73.9 nM |  | 
XHXRWC (hydantoin ring from Ile 1, C(O) and the amino group of Cys 2; D-Ala 3; D-Phe 5; disulfide Cys 2-Cys 8 (cyclo); C-terminal amide) [cyclo[Hydantoin(C(O)-(Ile-Cys))-D-Ala-His-D-Phe-Arg-Trp-Cys]-NH2] | 53.4 nM |  | 41.6 nM | 
CEHXRWC (not fully specified; hydantoin ring from Arg 1, C(O) and the amino group of Gly 2; D-Phe 6; disulfide Cys 3-Cys 9 (cyclo); C-terminal amide, also called Compound C) [Hydantoin(C(O)-(Arg-Gly))-cyclo(Cys-Glu-His-D-Phe-Arg-Trp-Cys)-NH2] | 8.59 nM | 7760 nM |  | 
CEHXRWC (hydantoin ring from Gly 1, C(O) and the amino group of Arg 2; D-Phe 6; disulfide Cys 3-Cys 9 (cyclo); C-terminal amide, residue 6 here is D-Phe; also called Compound E) [Hydantoin(C(O)-(Gly-Arg))-cyclo(Cys-Glu-His-D-Phe-Arg-Trp-Cys)-NH2] | 5.68 nM | 4220 nM |  | 
EHXRWC (not fully specified; hydantoin ring from Gly 1, C(O) and the amino group of Cys 2; D-Phe 5; disulfide Cys 2-Cys 8 (cyclo); C-terminal amide) [cyclo[Hydantoin(C(O)-(Gly-Cys))-Glu-His-D-Phe-Arg-Trp-Cys]-NH2] | 15.6 nM | 3070 nM | 8.92 nM | 305 nM
